Data on eleven molecules can be found in paper PMC7460627 (International Journal of Molecular Sciences, 2020).

As usually defined, the Kd is the equilibrium constant for the complex coming apart.

Experiment [1] has as its system lettuce eIF4E (all forms). The experiment is described as follows: Comparison of VPg / m7GTP binding to eIF4E forms (competition, overall affinity). The source says:
(§1) For optical characteristics of the instrument, see [36].

The target of experiment [2] is lettuce eIF4E^1 (resistant cultivar; ∆(108–110)H and A186S) (lettuce). Nature of the experiment: other fluorescence titration; as a1, but eIF4E 0.5 µM pre-incubated with m7GTP 2 µM prior to titration by VPg; 25 °C.
The target of experiment [3] is lettuce eIF4E^2 (resistant cultivar; A70P) (lettuce). The description is as above.
The target in experiment [4] is lettuce eukaryotic translation initiation factor 4E, eIF4E^0 (susceptible cultivar) (lettuce). The experiment is described as above.
Experiment [5] addresses lettuce eIF4E N-terminus-deleted form, eIF4E^0 [∆1–46] (lettuce). Nature of the experiment: other fluorescence titration; steady state decrease of eIF4E tryptophan intrinsic fluorescence upon titration by VPg or VPg peptide; 25 °C, 20 mM HEPES pH 7.5, 0.25 mM NaCl, 1 mM DTT.
For experiment [6], the target named is lettuce eIF4E^1 (resistant cultivar; ∆(108–110)H and A186S) (lettuce). The description is as above.
Experiment [7] has as its target lettuce eIF4E^2 (resistant cultivar; A70P) (lettuce). Described as above.
The target of the next experiment is T1, lettuce eIF4E (Lactuca sativa, UniProt A0A2J6L8Y7).
T1 construct: to obtain untagged full-length eIF4E and eIF4E∆(1–46); made in house; host or cells: E. coli BL21-AI
Nature of the experiment: Peptide affinity from eIF4E intrinsic fluorescence decay. In kind it is binding.
Text: as §1

In another experiment the target is T2, eIF4E (Lactuca sativa, UniProt A0A2J6L8Y7).
T2 construct: to obtain untagged full-length eIF4E and eIF4E∆(1–46); made in house; host or cells: E. coli BL21-AI
The experiment is described as follows: Stopped-flow kinetics, quenching of eIF4E tryptophan fluorescence. In kind it is binding, lettuce. How it is done:
We hypothesized that the 107–120 region could modulate the mechanism of association, the details of which cannot be grasped through equilibrium thermodynamics. Consequently, fast kinetics measurement were performed by stopped flow to compare VPg88–111 and VPg88–120 association with eIF4E (Figure 3).
(A) The quenching of eIF4E tryptophan fluorescence was monitored after mixing 0.3 µM eIF4E with 1 µM VPg88–111 (final concentration). The excitation wavelength was 283 nm. Inset, plots of 1/kobs versus 1/[peptide] at 2.5, 5, 7.5 and 10 µM peptide concentration. VPg88–111 open circles, VPg88–120, open triangles. (B) Stopped-flow traces of VPg88–111*–eIF4E complex formation acquired at 520 nm upon excitation at 480 nm. VPg88–111*: doubly labeled fluorescent derivative of VPg88–111.
The eIF4E tryptophan fluorescence decrease concomitant to association was monitored for several peptide concentrations (Figure S3). A single exponential model fitted satisfactorily with the experimental data allowing the determination of kobs, the apparent constant of the complex formation.
as §1

Experiment [8] deals with lettuce eukaryotic translation initiation factor 4E, eIF4E^0 (susceptible cultivar) (lettuce). Nature of the experiment: other fluorescence titration; steady state decrease of eIF4E tryptophan intrinsic fluorescence upon titration by VPg or VPg peptide; 25 °C, 20 mM HEPES pH 7.5, 0.25 mM NaCl, 1 mM DTT.
The target is the same in experiment [9]. Nature of the experiment: stopped-flow fluorescence kinetics; quenching of eIF4E tryptophan fluorescence after mixing 0.3 µM eIF4E with peptide (1 µM; 2.5, 5, 7.5 and 10 µM); excitation 283 nm; single exponential fit, kobs.
Experiment [10] deals with VPg_(88–111)*, doubly labeled fluorescent derivative of VPg_(88–111) (lettuce mosaic virus (LMV strain AF199)). Nature of the experiment: other fluorescence titration; steady state titration by eIF4E of 250 nM VPg_(88–111)*, read by the AEDANS to fluorescein resonance energy transfer within the peptide; AEDANS excited at 337 nm; simple bimolecular equilibrium model; 25 °C, 20 mM HEPES pH 7.5, 0.25 mM NaCl, 1 mM DTT.

The target of experiment [11] is T3, lettuce eukaryotic translation initiation factor 4E, eIF4E^0 (susceptible cultivar) (lettuce, UniProt A0A2J6L8Y7 1-235).
T3 chain: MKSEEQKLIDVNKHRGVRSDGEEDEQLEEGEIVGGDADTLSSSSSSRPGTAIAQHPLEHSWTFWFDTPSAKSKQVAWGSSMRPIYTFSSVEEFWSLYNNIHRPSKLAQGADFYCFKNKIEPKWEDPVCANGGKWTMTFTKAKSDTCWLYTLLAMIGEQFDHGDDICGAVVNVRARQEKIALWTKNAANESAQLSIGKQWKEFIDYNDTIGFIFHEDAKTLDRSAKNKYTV

Ends that are not written are not given here.

For `Cn1c[n+]([C@@H]2O[C@H](COP(=O)([O-])OP(=O)(O)OP(=O)(O)O)[C@@H](O)[C@H]2O)c2nc(N)[nH]c(=O)c21` [m7GTP], the “competition between VPg and m7GTP” value in experiment [1] is given as “compete for their binding to eIF4E”. Regarding “LMV VPg from the non-resistance-breaking strain (LMV0) (natural protein)”, the KD with m7GTP in experiment [2] was 632 nM; in [3], 703 nM; in [4], 746 nM. The Kd in [5] was found to be 276 nM; in experiment [6] it was 340 nM; in experiment [7], 288 nM. For LSGGEIESEHMRSG [VPg107–120], binding on lettuce eIF4E was put at a Kd of 852 ± 57 nM. Regarding VFSDIGLVQDAFGKERLKLLSGGE [VPg88–111], the “affinity for eIF4E, in words” value at lettuce eIF4E (VPg88–111 versus VPg88–120) is listed as “comparable affinities”. Besides, the “dependence of 1/kobs or kobs on peptide concentration” value at eIF4E (0.3 µM eIF4E, 2.5, 5, 7.5 and 10 µM peptide, single exponential fit) is recorded as “gave a straight line, featuring the pseudo first order nature of the association depending on ligand concentration”. In addition, the “kinetic model of complex formation” value on eIF4E (stopped flow, eIF4E tryptophan quenching) was “one-step process”. “VFSDIGLVQDAFGKERLKLLSGGEIESEHMRSG [VPg88–120]” had a Kd at lettuce eIF4E of 67 ± 7 nM. Consider VPg_(88–111) synthetic peptide, for which, in experiment [8], the Kd worked out at 72 nM.

As to VPg_(88–120) synthetic peptide, the Kd in [8] amounted to 67 nM. Besides, in experiment [9], the k2 (second step of the two-step model, conformational transition of the bound peptide) amounted to 33 s⁻¹. For the molecule VPg_(107–120) synthetic peptide, in experiment [8], the Kd was 852 nM. Molecule “lettuce eukaryotic translation initiation factor 4E, eIF4E^0 (susceptible cultivar) (from UniProt A0A2J6L8Y7 1-235) (natural protein)” had a Kd in [10] of 63 nM.

B1: LMV VPg from the non-resistance-breaking strain (LMV0) (natural protein)
chain: GKGKRQRQKLRYRQARDNKVGIEVYGDDATMEHYFGAAYTEKGKKSGKTKGMGTKNRRFVNMYGYNPEDFSFIRFLDPLTGKTMDEQVFSDISLVQDAFSKERLKLLSEGEIESEHMRNGIRAYLVKNLTTAALEIDMTPHNSCQLGAKTNNIAGYVDREYELRQTGEARVVAPALIPKDNPITDEDIPVKHE
As to B1, the Kd in experiment [11] came to 202 nM.

B2: whole VPg from LMV-AF199 strain (natural protein)
chain: GKGKRQRQKLRYRQARDNKVGIEVYGDDATMEHYFGAAYTEKGKKSGKTKGMGTKNRKFVNMYGYNPEDFSFIRFLDPLTGKTMDEQVFSDIGLVQDAFGKERLKLLSGGEIESEHMRSGIRAYLVKNLTTAALEIDMTPHNSCQLGIKTNNIAGFVDREYELRQTGEARVVAPALIPKDNPITDEDIPVKHE
In [11], B2 showed a Kd of 82 nM.
